Assay results taken from patent publication US12216128B2, “Methods for guiding therapy decisions in seizure disorders” (Mayo Foundation for Medical Education and Research, priority 2018, dated 2025).

How the values were obtained:
human IL-1R = molecular target: T1, human IL-1R (Homo sapiens, UniProt P14778); experiment: HEK-Blue IL1R cell-based IL-1R signaling reporter assay (SEAP, Quanti-Blue, absorbance 655 nm)
T1 construct: Human embryonic kidney (HEK) cells expressing murine and human IL-1 receptor proteins; host or cells: HEK-Blue IL1R (HEK293-derived reporter cells)
T1 sequence (P14778 18-569): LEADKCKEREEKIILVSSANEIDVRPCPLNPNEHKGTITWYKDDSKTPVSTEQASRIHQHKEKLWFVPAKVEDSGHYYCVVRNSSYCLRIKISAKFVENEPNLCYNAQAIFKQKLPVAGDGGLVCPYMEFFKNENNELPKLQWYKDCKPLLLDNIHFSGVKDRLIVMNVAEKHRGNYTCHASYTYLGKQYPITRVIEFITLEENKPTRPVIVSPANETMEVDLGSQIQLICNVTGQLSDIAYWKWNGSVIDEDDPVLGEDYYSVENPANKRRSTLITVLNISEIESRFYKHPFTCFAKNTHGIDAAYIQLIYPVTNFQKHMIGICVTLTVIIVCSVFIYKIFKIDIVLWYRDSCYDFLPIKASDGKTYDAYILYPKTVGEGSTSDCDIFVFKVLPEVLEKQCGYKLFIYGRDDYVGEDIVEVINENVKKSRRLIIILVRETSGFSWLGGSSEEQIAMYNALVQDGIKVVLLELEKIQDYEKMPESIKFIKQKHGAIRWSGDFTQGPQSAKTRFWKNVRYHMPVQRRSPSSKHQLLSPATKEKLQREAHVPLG
Protocol: HEK-Blue IL1R cells: Human embryonic kidney (HEK) cells expressing murine and human IL-1 receptor proteins, as well as expressing secreted embryonic alkaline phosphatase under NF-kB/AP1 transcriptional control (HEK-Blue IL1R, InvivoGen), were maintained in DMEM with 10% FBS, 2 mM glutamine, 50 U/mL penicillin, 50 μg/ml streptomycin, 100 μg/ml Normocin, 200 μg/mL hygromicin B, 1 μg/mL puromycin, and 100 μg/ml Zeocin. Heat inactivated human serum tested negative for background alkaline phosphatase activity. In initial experiments, HEK-Blue IL1R cells were treated for 24 hours with 0-100 ng/mL recombinant human IL-1β (Peprotech) in the presence of 0-200 ng/mL anakinra. In subsequent experiments, cells were treated with 32 pg/mL IL-1β for all conditions. After 3 hours, saturating concentrations (10 μg/mL) of anakinra were added to the cells to block further IL-1R signaling, and endpoint supernatants were collected at 24 hours. Supernatants (20-40 μL) were mixed with prewarmed QUANTI-Blue reagent (160 μL, InvivoGen) and incubated at 37° C. in a Spectramax M3 multi-mode microplate reader (Molecular Devices). Absorbance at 655 nm was recorded every 5 minutes for 3 hours via kinetic read. The basal absorbance of untreated HEK-Blue IL-1R cell supernatant was subtracted from all samples to normalize for non-specific signal.
Given that both IL-1β and IL-1RA were elevated in FIRES patient serum, experiments were conducted to determine whether the elevation translated into a change in overall IL-1R signaling activity. To develop a sensitive functional measurement of IL-1R signaling activity, a cell based assay using HEK-Blue IL1R cells was developed and optimized. These cells express human IL-1R and respond to IL-1R signaling-induced NFκB activity by producing secreted embryonic alkaline phosphatase (SEAP), which dose-dependently results in increased absorbance of 655 nm wavelength light upon incubation with Quanti-Blue substrate (FIG. 2A).
To investigate this possibility, the antagonistic activity of FIRES patient CSF-derived IL-1RA was assessed using an in vitro HEK-Blue IL1R cell-based assay. […] Thus, HEK-Blue IL1R cells were treated with 32 pg/mL IL-1β in the presence of either 50% dialyzed FIRES patient CSF containing 65 pM patient IL-1RA or 50% dialyzed CSF derived from NPH patients that was supplemented with recombinant IL-1RA prior to dialysis to reach concentrations of IL-1RA equimolar to that seen in FIRES patient CSF. The percent inhibition of IL-1R-induced SEAP was then compared in cells treated with 50% CSF containing 65 pM FIRES patient IL-1RA vs. 50% CSF containing 65 pM anakinra.

[1] = IL-1RA ELISA in FIRES patient serum and CSF before and after initiation of anakinra treatment; assay type: in vivo, human; details: detects the exogenous IL-1RA
Protocol: IL-1RA enzyme-linked immunosorbent assay: The human IL-1RA/IL1F3 Quantikine ELISA kit (R&D Systems) was used according to the manufacturer's instructions. Serum and CSF samples were diluted (1:2-1:5000 in assay diluent) and duplicate samples were measured against a standard curve (31.3-2000 pg/mL in duplicate). After chromogen development, absorbance was measured on a Spectramax M3 multi-mode microplate reader (Molecular Devices). Absorbances falling outside the range of the standard curve were reanalyzed at different dilutions.
To determine whether there was a diminished level of endogenous IL-1RA in FIRES patient serum or CSF, IL-1RA levels were measured by enzyme-linked immunosorbent assay (ELISA) in FIRES patient serum and CSF before and after initiation of anakinra treatment, as well as in serum from healthy controls, CSF from normal pressure hydrocephalus patients, and serum and CSF from patients with other seizure disorders. […] IL-1RA was strongly elevated in FIRES CSF compared to normal pressure hydrocephalus controls and patients with ESES or focal epilepsy (FIG. 1C). CSF IL-1β levels, which were only rarely detectable in healthy controls, were also elevated in among FIRES patients (FIG. 1D). […] This finding also was consistent with reports of elevated IL-1RA following seizure activity (Lehtimaki et al., Neuroimmunomodulation 17(1):19-22, 2010).

children with FIRES = details: Kenney-Jung et al. 2016; cited from earlier work

Substance: anakinra: recombinantly-produced human IL-1RA
- suppression of the measured increase in IL-1R activity elicited by serum plus IL-1β (human IL-1R; 32 pg/mL IL-1β in the presence of 10% serum (HC, FE, FIRES, ESES), all conditions, FIG. 3E): at least partially suppressed
- IL-1R signaling in IL-1β treated HEK cells compared to unsupplemented NPH CSF (human IL-1R; 32 pg/mL IL-1β, 50% dialyzed NPH CSF supplemented with 65 pM, FIG. 5B): significantly less IL-1R signaling
- inhibition of IL-1R signaling in dialyzed CSF (human IL-1R; CSF dialyzed against DMEM/F12, 100 Dalton cut off membrane, FIG. 4D): restored anakinra-mediated inhibition
- blockade of IL-1β-induced IL-1R signaling (SEAP) (human IL-1R; HEK-Blue IL1R cells, co-treatment with IL-1β, FIG. 2B): competitively blocked
- inhibition of IL-1R signaling in undialyzed CSF (human IL-1R; media containing 50% control CSF or artificial CSF, compared to complete media, FIGS. 4A-4C): did not show inhibition of IL-1R signaling
- CSF level of IL-1RA following treatment ([1]; FIRES patient CSF): further increased
- serum level of IL-1RA following treatment ([1]; FIRES patient serum): further increased
- clinical response of seizure disorder (children with FIRES): some children with FIRES respond
